± gives the standard deviation of the averaged measurements.
System: ATP
Experiment: switch fluorescence ratio, 500 uM ATP over buffer (Cy3 cluster intensity, sum of 5 cycles each) (fold (ratio)); higher = stronger signal-on switching upon ATP binding; sequences stand for … in TCGTCGGCAGCGTCAGATGTGTATAAGAGACAGTTTTTTTTTTTTTTTTTTTTTTTTT…TC
Conditions: aptamer strand: ATP DNA aptamer (quencher-CACCTGGGGGAGTATTGCGGAGGAAGG + anchor), 100 nM annealed; ATP concentration: 500 uM
How it was run: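 Switching-strand clusters labelled with Cy3 on a modified Illumina MiSeq flow-cell were annealed to 100 nM quencher-labelled ATP aptamer, imaged in selection buffer, and re-imaged after 15 min with 500 uM ATP at 22 °C. This was done over five cycles with NaOH stripping and re-annealing in between. The fluorescence ratio is summed target-cycle over summed buffer-cycle Cy3 intensity per cluster, averaged per switch-domain sequence, excluding clusters outside 100-1000 RFU.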
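Also: ATP exposure 15 min at 22 °C before imaging.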

TTTGTCCATG
switch fluorescence ratio: 0.996 ± 0.055

GGGAATTTTA
switch fluorescence ratio: 1.01 ± 0.012

CACAAGCACT
switch fluorescence ratio: 1.28 ± 0.069

TGGAAATTGT
switch fluorescence ratio: 0.9944 ± 0.0077

TCCCAGTGCT
switch fluorescence ratio: 1.84 ± 0.21

AACTGGGGAT
switch fluorescence ratio: 0.9809 ± 0.0018

TCCGGGGGGC
switch fluorescence ratio: 1.15 ± 0.18

AATTTATGC
switch fluorescence ratio: 0.97 ± 0.011

TTAGTAGTTG
switch fluorescence ratio: 1.02 ± 0.028

TATTGTAGCT
switch fluorescence ratio: 1.01 ± 0.044

TTTTGCCGAT
switch fluorescence ratio: 0.989 ± 0.023

TATAAAAAGC
switch fluorescence ratio: 1 ± 0.013

ACGTTAAATG
switch fluorescence ratio: 1.13 ± 0.053

AAAGTGTGCG
switch fluorescence ratio: 1.01 ± 0.023

TTTTAGACAG
switch fluorescence ratio: 1.01 ± 0.017

CTTGGGTGAA
switch fluorescence ratio: 1.09 ± 0.19

TGATTGTATC
switch fluorescence ratio: 0.981 ± 0.055

TATAATAAGG
switch fluorescence ratio: 0.9996 ± 0.0098

TTATATGTTA
switch fluorescence ratio: 1.03 ± 0.055

GAGTTTCATG
switch fluorescence ratio: 0.963 ± 0.015

TCGGGTATTT
switch fluorescence ratio: 0.998 ± 0.021

AACATATTGG
switch fluorescence ratio: 1.01 ± 0.073

CGAGACCACA
switch fluorescence ratio: 1.05 ± 0.043

GAGTAGTGTT
switch fluorescence ratio: 0.984 ± 0.02

ATGTAATTTA
switch fluorescence ratio: 1 ± 0.017

TGGTGCTAAG
switch fluorescence ratio: 1.03 ± 0.02

GCACATAGCT
switch fluorescence ratio: 1.01 ± 0.025

GGGACTTTGG
switch fluorescence ratio: 0.972 ± 0.018

TAAAAATCTT
switch fluorescence ratio: 1.01 ± 0.041

GGCCTAGTTT
switch fluorescence ratio: 0.9799 ± 0.0073

CCGGCATCGG
switch fluorescence ratio: 1.02 ± 0.059

GGCATCAGGG
switch fluorescence ratio: 1.02 ± 0.013

GTTCTTGGTG
switch fluorescence ratio: 1.01 ± 0.0089

GGGTGGATAG
switch fluorescence ratio: 0.971 ± 0.018

GCCCCGGGTT
switch fluorescence ratio: 1.36 ± 0.37

TAGCAAGTGG
switch fluorescence ratio: 0.998 ± 0.043

AATGGGTGAG
switch fluorescence ratio: 0.982 ± 0.014

TGTATGATGT
switch fluorescence ratio: 1.03 ± 0.049

TGAGCCATCG
switch fluorescence ratio: 0.987 ± 0.02

TAATTTGAAC
switch fluorescence ratio: 1.02 ± 0.043

TGATACTTAG
switch fluorescence ratio: 1.061 ± 0.0084

TCCCGGTAGT
switch fluorescence ratio: 1.01 ± 0.019

AGATTGGGGT
switch fluorescence ratio: 1.01 ± 0.017

GGGTGGTGCC
switch fluorescence ratio: 0.997 ± 0.056

GTTGTATACT
switch fluorescence ratio: 0.993 ± 0.076

ATACGGACGG
switch fluorescence ratio: 1.4 ± 0.073

TGGTTGGTTG
switch fluorescence ratio: 0.988 ± 0.02

AAAAGAAAGC
switch fluorescence ratio: 0.956 ± 0.03

CATAGTTGCG
switch fluorescence ratio: 1.02 ± 0.04

GGGATCTACG
switch fluorescence ratio: 1.04 ± 0.026

ATTTCGGTCT
switch fluorescence ratio: 0.9892 ± 0.0049

CGTAGTTCGT
switch fluorescence ratio: 1.036 ± 0.0046

AAGGTTGCGG
switch fluorescence ratio: 1 ± 0.037

CTGATGAGAG
switch fluorescence ratio: 0.997 ± 0.051

TTTTTTAGGT
switch fluorescence ratio: 0.99 ± 0.03

AGTATAGAAA
switch fluorescence ratio: 0.978 ± 0.0065

TTGTTTCGTT
switch fluorescence ratio: 0.9804 ± 0.0073

TTAAGTGCTA
switch fluorescence ratio: 0.9897 ± 0.0067

ATTTTTTTTC
switch fluorescence ratio: 0.989 ± 0.022

TAGTTATTTA
switch fluorescence ratio: 0.99 ± 0.033

CAATTTAGCG
switch fluorescence ratio: 1.02 ± 0.032

AATGGAGATT
switch fluorescence ratio: 0.985 ± 0.031

GCGTTTTTTT
switch fluorescence ratio: 0.98972 ± 0.0007

GGATGCAGTT
switch fluorescence ratio: 0.99 ± 0.026

CTGGTCATCT
switch fluorescence ratio: 0.991 ± 0.011

ATTATACGGC
switch fluorescence ratio: 1.056 ± 0.0042

TGGGGTCTGT
switch fluorescence ratio: 0.993 ± 0.02

CTCAATTCTG
switch fluorescence ratio: 0.969 ± 0.031

CACCGTGTCT
switch fluorescence ratio: 1.02 ± 0.016

AGGCTTATCT
switch fluorescence ratio: 0.989 ± 0.025

TTGATACAGG
switch fluorescence ratio: 1.29 ± 0.37

CCATAGTTGC
switch fluorescence ratio: 1.57 ± 0.086

TTTTAATTGA
switch fluorescence ratio: 1.02 ± 0.031

CAATCATGTT
switch fluorescence ratio: 1.02 ± 0.027

GTGATTGCGG
switch fluorescence ratio: 1.02 ± 0.069

AGGGAGCCCG
switch fluorescence ratio: 1.01 ± 0.036

TTAGTTGTGG
switch fluorescence ratio: 0.982 ± 0.02

TGGGGCCTTT
switch fluorescence ratio: 0.9981 ± 0.0045

TCTTAACGGC
switch fluorescence ratio: 1.04 ± 0.05

TACTTATTGT
switch fluorescence ratio: 0.9755 ± 0.0083

GAGTGGTAGG
switch fluorescence ratio: 1.01 ± 0.021

TTTCAACGAT
switch fluorescence ratio: 1 ± 0.029

AGATTAAAGA
switch fluorescence ratio: 1.006 ± 0.009

TATAGCTTCG
switch fluorescence ratio: 1 ± 0.043

TTAATAAGAC
switch fluorescence ratio: 1.04 ± 0.054

TTGCAAATTT
switch fluorescence ratio: 1.79 ± 1.4

CCGCTGTTTT
switch fluorescence ratio: 1.16 ± 0.23

AGACTGGTAC
switch fluorescence ratio: 1.156 ± 0.0022

GCGGTTGGAA
switch fluorescence ratio: 0.9927 ± 0.0034

GTTTTGCTGT
switch fluorescence ratio: 0.986 ± 0.046

TACATGGTTT
switch fluorescence ratio: 1.01 ± 0.032

GGTTTAAGGT
switch fluorescence ratio: 1.01 ± 0.02

GGGGAAAGGA
switch fluorescence ratio: 0.9896 ± 0.0085

ATGAGCCAGT
switch fluorescence ratio: 1.003 ± 0.004

TTTAAATAGC
switch fluorescence ratio: 0.9742 ± 0.00053

CAGACGAGGC
switch fluorescence ratio: 1.044 ± 0.0037

GTTAGGGGAG
switch fluorescence ratio: 1 ± 0.042

AGGGGGAAGC
switch fluorescence ratio: 1.02 ± 0.027

AGGGTATGAT
switch fluorescence ratio: 0.99 ± 0.025

TTCCCTTTTG
switch fluorescence ratio: 1.02 ± 0.0057

GAGTGCTATT
switch fluorescence ratio: 0.981 ± 0.013

ATTGTGGGGT
switch fluorescence ratio: 0.977 ± 0.04

TGCGCAAAAG
switch fluorescence ratio: 1.01 ± 0.012

ACCCGAGTTT
switch fluorescence ratio: 1 ± 0.018

CAGATAAGGA
switch fluorescence ratio: 1.01 ± 0.026

TGAGGTCAGA
switch fluorescence ratio: 1.03 ± 0.013

AACGGTGCGG
switch fluorescence ratio: 1.01 ± 0.026

TCGTGGTGTT
switch fluorescence ratio: 1.03 ± 0.021

TTAGTCCAGA
switch fluorescence ratio: 1.007 ± 0.0018

ACTCGGGGGA
switch fluorescence ratio: 1.018 ± 0.0035

GCGGATGCTT
switch fluorescence ratio: 0.9718 ± 0.0056

AAATATAGTG
switch fluorescence ratio: 0.991 ± 0.025

TTGTGGCCGG
switch fluorescence ratio: 0.978 ± 0.045

CCATTTGAGG
switch fluorescence ratio: 0.987 ± 0.059

ATCATTTTTT
switch fluorescence ratio: 0.9877 ± 0.0061

TCGAGGGGGG
switch fluorescence ratio: 1.05 ± 0.096

ATGGGCGAAC
switch fluorescence ratio: 1.63 ± 0.82

TGGGACGGGC
switch fluorescence ratio: 0.98 ± 0.049

TTTTTTGGGT
switch fluorescence ratio: 0.994 ± 0.024

GTGAGGCCCC
switch fluorescence ratio: 1 ± 0.02

TTTATGAGAG
switch fluorescence ratio: 1.08 ± 0.092

ATAGAATAGA
switch fluorescence ratio: 0.985 ± 0.02

TTGAGTGTGT
switch fluorescence ratio: 0.9604 ± 0.0023

CAGCGGGGCC
switch fluorescence ratio: 0.994 ± 0.011

CGTTACGTAG
switch fluorescence ratio: 1.05 ± 0.018

CGGGGGGTTT
switch fluorescence ratio: 1.01 ± 0.025

TGTCTACTCT
switch fluorescence ratio: 1 ± 0.022

CGCTTGTTCG
switch fluorescence ratio: 1.01 ± 0.027

AACTTTATCC
switch fluorescence ratio: 1.09 ± 0.042

ATTGTGATGA
switch fluorescence ratio: 1.024 ± 0.0085

AGGGTGTGGT
switch fluorescence ratio: 0.9841 ± 0.0039

GGTTAGGCGC
switch fluorescence ratio: 0.993 ± 0.012

TTTTCCGACA
switch fluorescence ratio: 2.28 ± 1.5

ACGGATTTAG
switch fluorescence ratio: 1.024 ± 0.01

GGGGAGGGCA
switch fluorescence ratio: 1.02 ± 0.035

GCTGAGGCTG
switch fluorescence ratio: 1 ± 0.032

GTCGGGAGGA
switch fluorescence ratio: 0.998 ± 0.025

AAAGTAAGCC
switch fluorescence ratio: 0.984 ± 0.018

TTTCAGGCTT
switch fluorescence ratio: 1.14 ± 0.13

CTCAACGATT
switch fluorescence ratio: 1.03 ± 0.048

GAGGGCCAGG
switch fluorescence ratio: 1.13 ± 0.076

TTTGGGTTGG
switch fluorescence ratio: 1.03 ± 0.13

ATAGTTATGT
switch fluorescence ratio: 1.0153 ± 0.00095

TTAGACGGGA
switch fluorescence ratio: 1.026 ± 0.0043

AGGGTGACGG
switch fluorescence ratio: 1.02 ± 0.031

CAACCCGGTA
switch fluorescence ratio: 1.51 ± 0.7

CTGCCAGATG
switch fluorescence ratio: 1.1 ± 0.054

TAGTCTTGGG
switch fluorescence ratio: 1.001 ± 0.0026

GCGGTAGCAG
switch fluorescence ratio: 0.979 ± 0.024

TTCGGGCGGA
switch fluorescence ratio: 0.98 ± 0.011

TCTCGTACCT
switch fluorescence ratio: 1.19 ± 0.12

ATTCCAATTT
switch fluorescence ratio: 1.08 ± 0.035

TCTTTTTGTT
switch fluorescence ratio: 0.99 ± 0.018

CGGGCCGTTT
switch fluorescence ratio: 1.06 ± 0.077

TTATGTGCGA
switch fluorescence ratio: 1.02 ± 0.013

TTTGATAAAT
switch fluorescence ratio: 1 ± 0.014

ACAGTTTTTT
switch fluorescence ratio: 0.98861 ± 1.6e-05

GTTTCGTATA
switch fluorescence ratio: 0.997 ± 0.044

TTCTGGAAAT
switch fluorescence ratio: 0.994 ± 0.016

ATTTCCACAA
switch fluorescence ratio: 1.1 ± 0.03

GTCGGATGCT
switch fluorescence ratio: 1.02 ± 0.047

TTAAGTATTT
switch fluorescence ratio: 0.997 ± 0.055

TGCAATTTTA
switch fluorescence ratio: 1.03 ± 0.023

AGGTTGTGTG
switch fluorescence ratio: 0.959 ± 0.044

ATGCACTGCT
switch fluorescence ratio: 1.04 ± 0.021

GGTGGGGTCC
switch fluorescence ratio: 0.987 ± 0.011

AAGTTGTATG
switch fluorescence ratio: 0.9787 ± 0.0025

TGGACTTAGG
switch fluorescence ratio: 0.987 ± 0.03

TAATGCAGGA
switch fluorescence ratio: 1.02 ± 0.015

GACTTTACTG
switch fluorescence ratio: 1.06 ± 0.049

TTGGTTACAC
switch fluorescence ratio: 1.006 ± 0.0013

CGGGGGGTAC
switch fluorescence ratio: 1.03 ± 0.036

CCAGA
switch fluorescence ratio: 1.022 ± 0.006

GAATATATTT
switch fluorescence ratio: 0.993 ± 0.019

GGTGTAGCGG
switch fluorescence ratio: 0.982 ± 0.065

AGCTTCCATG
switch fluorescence ratio: 1.09 ± 0.023

TAATTCGGAT
switch fluorescence ratio: 2.07 ± 1.8

AACGTATGTT
switch fluorescence ratio: 0.9895 ± 0.0028

TAATATATTT
switch fluorescence ratio: 1.01 ± 0.028

GAGACAGTTA
switch fluorescence ratio: 0.992 ± 0.014

CCAGTAGTTT
switch fluorescence ratio: 1 ± 0.013

AGTCGAGCGT
switch fluorescence ratio: 0.9976 ± 0.0034

GGGGAGGTCG
switch fluorescence ratio: 1.03 ± 0.02

AATAAGAGGG
switch fluorescence ratio: 1.01 ± 0.026

TGTTATCGTT
switch fluorescence ratio: 0.989 ± 0.018

AACTCGGGGT
switch fluorescence ratio: 1.02 ± 0.05

AATTAGATAC
switch fluorescence ratio: 1.12 ± 0.074

GGGGACGGGG
switch fluorescence ratio: 1 ± 0.03

AGTAGCAAG
switch fluorescence ratio: 1.08 ± 0.036

AAGATGTTTG
switch fluorescence ratio: 0.975 ± 0.021

AGGGTAAAGG
switch fluorescence ratio: 0.989 ± 0.019

TTGTTGAATT
switch fluorescence ratio: 0.98 ± 0.042

TAGGATGTA
switch fluorescence ratio: 0.9643 ± 0.0014

CGGTTTGGGT
switch fluorescence ratio: 0.9931 ± 0.0043

TATGGGTTAA
switch fluorescence ratio: 1.01 ± 0.022

TTGGGCTAAT
switch fluorescence ratio: 0.994 ± 0.029

TGTTTATTGA
switch fluorescence ratio: 0.989 ± 0.013

TGATCCGGAT
switch fluorescence ratio: 1.02 ± 0.09

AGGGTGGCGT
switch fluorescence ratio: 0.9459 ± 0.0075

TTTCTAGGGG
switch fluorescence ratio: 1.01 ± 0.028
